Drawing on patent US20210145935A1, this text covers luciferase reporter activity of transduced MDCK cells, 40 µg/ml protein for one molecule.

Test [1] addresses H1N1 pseudotyped lentiviral particles (H1 and N1 from swine H1N1 A/California/04/09) (influenza A virus H1N1 A/California/04/09). As to the kind of experiment: cell-based or functional assay.
The target in test [2] is H3N2 pseudotyped lentiviral particles (H3 from A/Denmark/70/03, N2 from A/Texas/50/2012) (influenza A virus H3N2 A/Denmark/70/03; influenza A virus H3N2 A/Texas/50/2012). As to the kind of experiment: cell-based or functional assay.

B1: human complement factor H purified from human plasma, P08603 19-1231 (protein)
chain: EDCNELPPRRNTEILTGSWSDQTYPEGTQAIYKCRPGYRSLGNVIMVCRKGEWVALNPLRKCQKRPCGHPGDTPFGTFTLTGGNVFEYGVKAVYTCNEGYQLLGEINYRECDTDGWTNDIPICEVVKCLPVTAPENGKIVSSAMEPDREYHFGQAVRFVCNSGYKIEGDEEMHCSDDGFWSKEKPKCVEISCKSPDVINGSPISQKIIYKENERFQYKCNMGYEYSERGDAVCTESGWRPLPSCEEKSCDNPYIPNGDYSPLRIKHRTGDEITYQCRNGFYPATRGNTAKCTSTGWIPAPRCTLKPCDYPDIKHGGLYHENMRRPYFPVAVGKYYSYYCDEHFETPSGSYWDHIHCTQDGWSPAVPCLRKCYFPYLENGYNQNYGRKFVQGKSIDVACHPGYALPKAQTTVTCMENGWSPTPRCIRVKTCSKSSIDIENGFISESQYTYALKEKAKYQCKLGYVTADGETSGSITCGKDGWSAQPTCIKSCDIPVFMNARTKNDFTWFKLNDTLDYECHDGYESNTGSTTGSIVCGYNGWSDLPICYERECELPKIDVHLVPDRKKDQYKVGEVLKFSCKPGFTIVGPNSVQCYHFGLSPDLPICKEQVQSCGPPPELLNGNVKEKTKEEYGHSEVVEYYCNPRFLMKGPNKIQCVDGEWTTLPVCIVEESTCGDIPELEHGWAQLSSPPYYYGDSVEFNCSESFTMIGHRSITCIHGVWTQLPQCVAIDKLKKCKSSNLIILEEHLKNKKEFDHNSNIRYRCRGKEGWIHTVCINGRWDPEVNCSMAQIQLCPPPPQIPNSHNMTTTLNYRDGEKVSVLCQENYLIQEGEEITCKDGRWQSIPLCVEKIPCSQPPQIEHGTINSSRSSQESYAHGTKLSYTCEGGFRISEENETTCYMGKWSSPPQCEGLPCKSPPEISHGVVAHMSDSYQYGEEVTYKCFEGFGIDGPAIAKCLGEKWSHPPSCIKTDCLSLPSFENAIPMGEKKDVYKAGEQVTYTCATYYKMDGASNVTCINSRWTGRPTCRDTSCVNPPTVQNAYIVSRQMSKYPSGERVRYQCRSPYEMFGDEEVMCLNGNWTEPPQCKDSTGKCGPPPPIDNGDITSFPLSVYAPASSVEYQCQNLYQLEGNKRITCRNGQWSEPPKCLHPCVISREIMENYNIALRWTAKQKLYSRTGESVEFVCKRGYRLSSRSHTLRTTCWDGKLEYPTCAKR
With B1, the figures for the luciferase reporter activity of transduced MDCK cells, 40 µg/ml protein in test [1] and in test [2] were 25 % reduction and 50 % increase, respectively.
